Laboratory results reported in patent US20260242478A1 (published 2026).
Where no end group is shown, it is not given here.

What was measured:
[1] = target: T1, Anti-PSMA Fab (SEQ ID NOs: 19, 20); assay: phage binding ELISA; PSMA Fab on plate pre-incubated with PSMA antigen as competitor, anti-M13 HRP detection;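 note: crude clonal phage supernatants added without washing to wells preincubated with PSMA in blocking buffer, compared with wells receiving blocking buffer only, then bound phage detected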
T1 construct: Biotinylated and captured on neutravidin-coated plates in the phage ELISA; also called 006 PSMA Fab

[2] = target: T1, Anti-PSMA Fab (SEQ ID NOs: 19, 20); assay: phage binding ELISA; biotinylated PSMA Fab on neutravidin plate, clonal phage supernatant, anti-M13 HRP detection;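 note: wells were preincubated with blocking buffer either containing PSMA antigen or without it before crude phage supernatant was added, briefly incubated, then washed prior to detection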
[3] = target: T2, PSMA Fab; assay: phage ELISA; biotinylated PSMA Fab on neutravidin plate pre-incubated with PSMA antigen as competitor, anti-M13 HRP detection;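 note: crude clonal phage supernatants tested, compared against control wells pre-incubated with blocking buffer only, without PSMA antigen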
T2 construct: also called Anti-PSMA Fab; 006 PSMA Fab

[4] = target: T2, PSMA Fab; assay: phage ELISA; biotinylated PSMA Fab on neutravidin plate, clonal phage supernatant, anti-M13 HRP detection, blocking buffer alone
[5] = target: T3, Anti-PSMA Fab (SEQ ID NOs: 19, 20); assay: phage binding ELISA; biotinylated Fab on neutravidin plate, anti-M13 HRP detection
T3 construct: Biotinylated and captured on neutravidin coated plates in the phage ELISA; also called 006 PSMA Fab

[6] = target: T3, Anti-PSMA Fab (SEQ ID NOs: 19, 20); assay: phage binding ELISA on captured Fab; competitor PSMA antigen pre-incubated in the wells
[7] = target: T4, Anti-PSMA Fab (SEQ ID NOs: 19, 20); assay: phage binding ELISA on captured anti-PSMA Fab; competitor: PSMA antigen
T4 construct: In the phage ELISA the Fab was biotinylated and captured on neutravidin coated plates; also called 006 PSMA Fab

[8] = target: T4, Anti-PSMA Fab (SEQ ID NOs: 19, 20); assay: phage binding ELISA; clonal phage on biotinylated anti-PSMA Fab captured on neutravidin, anti-M13 HRP detection

For ADKWCIPEWMCQQD [Phage-2252 peptide (SEQ ID NO: 2568)], the “Anti-PSMA Fab signal in the presence of PSMA” value (“Anti-PSMA Fab signal” for short) [1] was 0.0665 and the “Anti-PSMA Fab (SEQ ID NOs: 19, 20) signal” value [2] was 1.55.

B1: Phage-2369 (peptide)
peptide: GLGWCTPTWMCEGF
notes: Peptide-180 library clone, tested as clonal phage supernatant
For B1, the “Phage binding ELISA signal, Anti-PSMA Fab in the presence of PSMA antigen” value (shortened to “Phage binding ELISA signal … of PSMA antigen”) [3] was 0.0727 and the “Phage binding ELISA signal, Anti-PSMA Fab” value [4] was 1.4.

B2: Phage-2196 (peptide)
peptide: LADWCRPVWMCEGF
notes: Clonal phage of the peptide-180 library, tested as crude phage supernatant; not shown: fused to pIII of the bacteriophage
B2 was tested, and the “Anti-PSMA Fab (SEQ ID NOs: 19, 20) signal” value [5] was 1.62 and the “Anti-PSMA Fab signal” value [6] was 0.287.

LENWCKPAWMCWGM [Phage-2248 peptide (SEQ ID NO: 2564)] was tested, and the “Anti-PSMA Fab signal” value [1] was 0.0811 and the “Anti-PSMA Fab (SEQ ID NOs: 19, 20) signal” value [2] was 1.55.

In the case of WENWCQPAWMCTGL [Phage-1826], the “Anti-PSMA Fab signal” value [7] is reported as 0.0691 and the “Anti-PSMA Fab (SEQ ID NOs: 19, 20) signal” value [8] is reported as 2.33.

In the case of DFKWCIPTWMCEVY [Phage-2238 peptide (SEQ ID NO: 2554)], the “Anti-PSMA Fab signal” value [1] is reported as 0.0768 and the “Anti-PSMA Fab (SEQ ID NOs: 19, 20) signal” value [2] is reported as 1.56.

B3: Phage-2198 (peptide)
peptide: DVNWCTPPWMCWGF
notes: as for B2
With B3 the “Anti-PSMA Fab (SEQ ID NOs: 19, 20) signal” value [5] was 1.62 and the “Anti-PSMA Fab signal” value [6] was 0.0743.

With MDKWCTPPWMCDWL [Phage-1829] the “Anti-PSMA Fab signal” value [7] was 0.136 and the “Anti-PSMA Fab (SEQ ID NOs: 19, 20) signal” value [8] was 2.3.

With HPNWCTPPWMCLGL [Phage-2239 peptide (SEQ ID NO: 2555)] the “Anti-PSMA Fab signal” value [1] was 0.0699 and the “Anti-PSMA Fab (SEQ ID NOs: 19, 20) signal” value [2] was 1.56.

B4: Phage-2251 peptide (SEQ ID NO: 2567) (peptide)
peptide: GTNWCTPAWMCAGF
modifications: cysteine pairing not given here; also: displayed on bacteriophage as fusion to pIII
For B4, the “Anti-PSMA Fab signal” value [1] was 0.061 and the “Anti-PSMA Fab (SEQ ID NOs: 19, 20) signal” value [2] was 1.55.

B5: Phage-2204 (peptide)
peptide: DLKLCKPEWMCNGM
notes: as for B2
For B5, the “Anti-PSMA Fab (SEQ ID NOs: 19, 20) signal” value [5] was 1.61 and the “Anti-PSMA Fab signal” value [6] was 0.0815.

B6: Phage-2203 (peptide)
peptide: MERWCIPEWMCERT
notes: as for B2
B6 was tested, and the “Anti-PSMA Fab (SEQ ID NOs: 19, 20) signal” value [5] was 1.61 and the “Anti-PSMA Fab signal” value [6] was 0.072.

B7: Phage-2360 (peptide)
peptide: EEKWCRPAWMCEHA
notes: as for B1
For B7, the “Phage binding ELISA signal … of PSMA antigen” value [3] was 0.0625 and the “Phage binding ELISA signal, Anti-PSMA Fab” value [4] was 1.42.

B8: Phage-2365 (peptide)
peptide: AEKLCKPAWMCNNM
notes: as for B1
With B8 the “Phage binding ELISA signal … of PSMA antigen” value [3] was 0.0752 and the “Phage binding ELISA signal, Anti-PSMA Fab” value [4] was 1.41.

B9: Phage-2205 (peptide)
peptide: VDRLCTPEWMCSGF
notes: as for B2
B9 was tested, and the “Anti-PSMA Fab (SEQ ID NOs: 19, 20) signal” value [5] was 1.61 and the “Anti-PSMA Fab signal” value [6] was 0.0763.

B10: Phage-2245 peptide (SEQ ID NO: 2561) (peptide)
peptide: SEKLCIPEWMCAQA
modifications: cysteine pairing not given here; also: displayed on bacteriophage as fusion to pIII
In the case of B10, the “Anti-PSMA Fab signal” value [1] is reported as 0.0686 and the “Anti-PSMA Fab (SEQ ID NOs: 19, 20) signal” value [2] is reported as 1.56.

In the case of VLKLCVPPWMCMAQ [Phage-1827], the “Anti-PSMA Fab signal” value [7] is reported as 0.0968 and the “Anti-PSMA Fab (SEQ ID NOs: 19, 20) signal” value [8] is reported as 2.32.

B11: Phage-2362 (peptide)
peptide: EEKMCKPSWMCQLF
notes: as for B1
In the case of B11, the “Phage binding ELISA signal … of PSMA antigen” value [3] is reported as 0.09 and the “Phage binding ELISA signal, Anti-PSMA Fab” value [4] is reported as 1.41.

B12: Phage-2197 (peptide)
peptide: LEKWCIPSWMCDGM
notes: as for B2
With B12 the “Anti-PSMA Fab (SEQ ID NOs: 19, 20) signal” value [5] was 1.62 and the “Anti-PSMA Fab signal” value [6] was 0.0637.

IIKWCTPEWMCVGF [Phage-2249 peptide (SEQ ID NO: 2565)] was tested, and the “Anti-PSMA Fab signal” value [1] was 0.0748 and the “Anti-PSMA Fab (SEQ ID NOs: 19, 20) signal” value [2] was 1.55.

In the case of NIIRCTPAWMCDGF [Phage-2247 peptide (SEQ ID NO: 2563)], the “Anti-PSMA Fab signal” value [1] is reported as 0.0619 and the “Anti-PSMA Fab (SEQ ID NOs: 19, 20) signal” value [2] is reported as 1.55.

B13: Phage-2201 (peptide)
peptide: EYNWCTPRWMCKGF
notes: as for B2
For B13, the “Anti-PSMA Fab (SEQ ID NOs: 19, 20) signal” value [5] was 1.62 and the “Anti-PSMA Fab signal” value [6] was 0.0617.

B14: Phage-2359 (peptide)
peptide: AANWCTPPWMCLGF
notes: as for B1
With B14 the “Phage binding ELISA signal … of PSMA antigen” value [3] was 0.0888 and the “Phage binding ELISA signal, Anti-PSMA Fab” value [4] was 1.42.

B15: Phage-2199 (peptide)
peptide: VEKWCIPSWMCQEL
notes: as for B2
With B15 the “Anti-PSMA Fab (SEQ ID NOs: 19, 20) signal” value [5] was 1.62 and the “Anti-PSMA Fab signal” value [6] was 0.0642.

B16: Phage-2363 (peptide)
peptide: AERWCIPDWMCNVI
notes: as for B1
B16 was tested, and the “Phage binding ELISA signal … of PSMA antigen” value [3] was 0.0567 and the “Phage binding ELISA signal, Anti-PSMA Fab” value [4] was 1.41.

With IDKWCIPAWMCEST [Phage-2250 peptide (SEQ ID NO: 2566)] the “Anti-PSMA Fab signal” value [1] was 0.105 and the “Anti-PSMA Fab (SEQ ID NOs: 19, 20) signal” value [2] was 1.55.

With MDNWCTPEWMCLGF [Phage-1828] the “Anti-PSMA Fab signal” value [7] was 0.065 and the “Anti-PSMA Fab (SEQ ID NOs: 19, 20) signal” value [8] was 2.3.

For LVKLCIPEWMCSEG [Phage-2244 peptide (SEQ ID NO: 2560)], the “Anti-PSMA Fab signal” value [1] was 0.0711 and the “Anti-PSMA Fab (SEQ ID NOs: 19, 20) signal” value [2] was 1.56.

B17: Phage-2192 (peptide)
peptide: MTPWCKPAWMCQGI
notes: as for B2
For B17, the “Anti-PSMA Fab (SEQ ID NOs: 19, 20) signal” value [5] was 1.63 and the “Anti-PSMA Fab signal” value [6] was 0.0994.

B18: Phage-2200 (peptide)
peptide: GEIWCIPAWMCNTG
notes: as for B2
B18 was tested, and the “Anti-PSMA Fab (SEQ ID NOs: 19, 20) signal” value [5] was 1.62 and the “Anti-PSMA Fab signal” value [6] was 0.0549.

In the case of VVKWCIPTWMCENS [Phage-2241 peptide (SEQ ID NO: 2557)], the “Anti-PSMA Fab signal” value [1] is reported as 0.0889 and the “Anti-PSMA Fab (SEQ ID NOs: 19, 20) signal” value [2] is reported as 1.56.

EPKWCTPAWMCEWM [Phage-1830] was tested, and the “Anti-PSMA Fab signal” value [7] was 0.0904 and the “Anti-PSMA Fab (SEQ ID NOs: 19, 20) signal” value [8] was 2.29.

B19: Phage-2195 (peptide)
peptide: LYKWCMPAWMCEQK
notes: as for B2
With B19 the “Anti-PSMA Fab (SEQ ID NOs: 19, 20) signal” value [5] was 1.62 and the “Anti-PSMA Fab signal” value [6] was 0.0702.

B20: Phage-2368 (peptide)
peptide: DGVWCVPQWMCDGY
notes: as for B1
With B20 the “Phage binding ELISA signal … of PSMA antigen” value [3] was 0.0722 and the “Phage binding ELISA signal, Anti-PSMA Fab” value [4] was 1.4.

B21: Phage-2194 (peptide)
peptide: HAMWCIPAWMCENL
notes: as for B2
For B21, the “Anti-PSMA Fab (SEQ ID NOs: 19, 20) signal” value [5] was 1.63 and the “Anti-PSMA Fab signal” value [6] was 0.0809.

B22: Phage-2366 (peptide)
peptide: INKWCIPEWMCAAM
notes: as for B1
For B22, the “Phage binding ELISA signal … of PSMA antigen” value [3] was 0.0668 and the “Phage binding ELISA signal, Anti-PSMA Fab” value [4] was 1.41.

GEIWCTPKWMCDGF [Phage-2246 peptide (SEQ ID NO: 2562)] was tested, and the “Anti-PSMA Fab signal” value [1] was 0.0716 and the “Anti-PSMA Fab (SEQ ID NOs: 19, 20) signal” value [2] was 1.55.

B23: Phage-2361 (peptide)
peptide: ITPWCIPPWMCPGP
notes: as for B1
For B23, the “Phage binding ELISA signal … of PSMA antigen” value [3] was 0.0746 and the “Phage binding ELISA signal, Anti-PSMA Fab” value [4] was 1.42.

In the case of LMNWCIPPWMCSAQ [Phage-2242 peptide (SEQ ID NO: 2558)], the “Anti-PSMA Fab signal” value [1] is reported as 0.0907 and the “Anti-PSMA Fab (SEQ ID NOs: 19, 20) signal” value [2] is reported as 1.56.

B24: Phage-2202 (peptide)
peptide: HDKWCIPEWMCISL
notes: as for B2
In the case of B24, the “Anti-PSMA Fab (SEQ ID NOs: 19, 20) signal” value [5] is reported as 1.62 and the “Anti-PSMA Fab signal” value [6] is reported as 0.075.

For LMKWCIPQWMCQLD [Phage-2243 peptide (SEQ ID NO: 2559)], the “Anti-PSMA Fab signal” value [1] was 0.249 and the “Anti-PSMA Fab (SEQ ID NOs: 19, 20) signal” value [2] was 1.56.

B25: Phage-2193 (peptide)
peptide: ESHLCIPAWMCDVQ
notes: as for B2
In the case of B25, the “Anti-PSMA Fab (SEQ ID NOs: 19, 20) signal” value [5] is reported as 1.63 and the “Anti-PSMA Fab signal” value [6] is reported as 0.0973.

B26: Phage-2364 (peptide)
peptide: GANLCIPPWMCLSS
notes: as for B1
In the case of B26, the “Phage binding ELISA signal … of PSMA antigen” value [3] is reported as 0.0789 and the “Phage binding ELISA signal, Anti-PSMA Fab” value [4] is reported as 1.41.

B27: Phage-2367 (peptide)
peptide: YEKWCIPAWMCHVA
notes: as for B1
B27 was tested, and the “Phage binding ELISA signal … of PSMA antigen” value [3] was 0.0747 and the “Phage binding ELISA signal, Anti-PSMA Fab” value [4] was 1.41.
